From US20240417462A1 (SHANGHAI CELGEN BIO PHARMACEUTICAL, published 2024)
Like-named read-outs stand apart in the source and are kept apart here. Values belong to the binder of their own block, whether it stands above or below them.

Assays:
[1] = biological target: T1, recombinant human TIGIT (Human TIGIT His, Sino Biological, 10917-H08H) (human, UniProt Q495A1 22-138); assay: BLI, antibody captured on anti-human Fc probe, TIGIT-His in solution
T1 construct: range 1-138; bought; also called hTIGIT
T1 sequence (looked up): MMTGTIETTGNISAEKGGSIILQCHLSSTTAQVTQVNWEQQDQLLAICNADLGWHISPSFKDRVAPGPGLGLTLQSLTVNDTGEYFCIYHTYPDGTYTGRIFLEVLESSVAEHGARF

[2] = biological target: T2, full-length human TIGIT expressed on CHO-K cell membrane (CHO-K-TIGIT) (human, UniProt Q495A1 22-244); assay: flow cytometry, CHO-TIGIT cells
T2 construct: whole, on cells; also called CHO-TIGIT; membrane TIGIT
T2 sequence (looked up): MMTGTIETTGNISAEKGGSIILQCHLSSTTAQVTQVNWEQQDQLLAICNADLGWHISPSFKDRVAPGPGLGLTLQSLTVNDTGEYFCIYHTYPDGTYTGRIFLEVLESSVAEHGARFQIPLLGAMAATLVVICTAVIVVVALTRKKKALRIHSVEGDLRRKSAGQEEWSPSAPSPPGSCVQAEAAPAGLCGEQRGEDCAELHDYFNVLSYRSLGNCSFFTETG

[3] = biological target: T1, recombinant human TIGIT (Human TIGIT …); assay: BLI, antibody captured on anti-human Fc probe, TIGIT-His in solution; remark: listed apart in the source
[4] = biological target: T1, recombinant human TIGIT (Human TIGIT …); assay: competition ELISA on recombinant human TIGIT, CD155 as competitor
[5] = biological target: T1, recombinant human TIGIT (Human TIGIT …); assay: ELISA, coated human TIGIT-His
[6] = biological target: T3, recombinant cynomolgus monkey TIGIT (cynomolgus monkey, UniProt A0A7N9I9V4 89-209); assay: ELISA, recombinant cynomolgus TIGIT coated, anti-mouse Fab secondary antibody, TMB, OD450/655nm
T3 construct: construct not described; also called cynomolgus TIGIT
Method: (§1) The cynomolgus monkey or mouse TIGIT antigen of was coated with the same method as above, the anti-human TIGIT mouse monoclonal antibody was diluted in gradient, and then the anti-mouse Fab secondary antibody was added (Jackson Immuno Research, 515-035-072) for TMB development. ELISA was used to detect the binding of 8 mouse monoclonal antibodies to recombinant cynomolgus monkey TIGIT.

mouse TIGIT antigen = biological target: T4, mouse TIGIT antigen (mouse, UniProt P86176 29-148, limits assumed); assay: ELISA, coated mouse TIGIT
T4 construct: construct not described; also called murine TIGIT
T4 sequence (looked up): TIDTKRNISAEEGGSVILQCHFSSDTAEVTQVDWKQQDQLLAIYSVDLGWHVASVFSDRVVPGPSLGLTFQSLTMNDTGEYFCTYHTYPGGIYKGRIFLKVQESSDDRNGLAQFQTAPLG
Method: as §1

[7] = biological target: T1, recombinant human TIGIT (Human TIGIT …); assay: competition ELISA, coated TIGIT-His, CD155-Fc as competitor
Method: In order to evaluate the competition between the anti-human TIGIT mouse monoclonal antibody and CD155 (Human CD155 (Fc Tag): Sino Biological, 10109-H02H) for binding to recombinant human TIGIT (Human TIGIT(His), Sino Biological, 10917-H08H), ELISA detection was performed, and the specific steps were as follows:
Primary antibody incubation: the plate was washed twice with PBS (250 μl/well), and patched dry. 6 μg/ml of CD155 was respectively diluted in a binding solution and added into a 96-well dilution plate at 60 μl/well. Then the screened hybridoma antibody was diluted with the binding solution, (the highest concentration was 30 μg/ml), and diluted to 3 times of concentration, and added into the corresponding dilution plate above at 60 μl/well. After mixing well, the sample was added to the coated 96-well ELISA plate at 100 μl/well. The plate was sealed with a sealing film and placed at 37° C. for 1.5 hours.
Secondary antibody incubation: the blocking solution was discarded, the plate was washed with 250 μl PBST for 3 times, and patched dry.

T3 sequence (A0A7N9I9V4 entry or part of it): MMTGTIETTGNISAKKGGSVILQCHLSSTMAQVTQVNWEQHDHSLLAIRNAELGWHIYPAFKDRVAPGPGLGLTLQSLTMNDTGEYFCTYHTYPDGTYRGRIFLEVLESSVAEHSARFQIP

- Kd [1]: 1.02 nM
- koff [1]: 0.000519 s⁻¹
- kon [1]: 511000 M⁻¹ s⁻¹
B1: humanized anti-human TIGIT monoclonal antibody P03488 (antibody, V domains shown)
VH: QVQLVQSGAEVKKPGASVKVSCKASGYTFISYNIYWVRQAPGQGLEWIGGVNPSNGNTNFNENFKGRVTLTVDTSISTAYMELSRLRSDDTAVYYCTRGNYYGYEFAYWGQGTTVTVSS
VL: DIQMTQSPSSMSASVGDRVTITCKASQHVSTAVAWYQQKPGKAPKLLIYSPSYRYTGVPSRFSGSGSGTDFTFTISSVQPEDIATYYCQQHYSTPWTFGGGTKLEIK

- EC50 [2]: 2.58 nM
- Kd [3]: 10.1 nM
- koff [3]: 0.00714 s⁻¹
- kon [3]: 707000 M⁻¹ s⁻¹
- IC50 [4]: 0.989 nM
- EC50 [5]: 0.161 nM
B4: humanized anti-human TIGIT monoclonal antibody P03478 (antibody, V domains shown)
VH: EVQVVESGGGLVKPGGSLRLSCAASGFTFSTYAMSWVRQAPGKGLEWVAEISSGGSHTFYSDTVTGRFTISRDNAKNTLYLQMNSLRAEDTAVYYCARKTLDYYALDYWGQGTTVTVSS
VL: DIQMTQSPSSVSASVGDRVTITCRASKSISKYLAWYQQKPGKAPKLLIYSGSRLQSGVPSRFSGSGSGTDFTLTISSLQPEDFATYYCQQHNEYPWTFGGGTKLEIK

- EC50 [2]: 1.52 nM
- Kd [3]: 7.92 nM
- koff [3]: 0.00483 s⁻¹
- kon [3]: 610000 M⁻¹ s⁻¹
- IC50 [4]: 1.32 nM
- EC50 [5]: 0.221 nM
B7: humanized anti-human TIGIT monoclonal antibody P03476 (antibody, V domains shown)
VH: EVQVVESGGGLVKPGGSLRLSCAASGFTFSTYAMSWVRQAPGKGLEWVAEISSGGSHTFYSDTVTGRFTISRDNAKNTLYLQMNSLRAEDTAVYYCARKTLDYYALDYWGQGTTVTVSS
VL: DVQITQSPSYLSASVGDRVTINCRASKSISKYLAWYQQKPGKAPKLLIYSGSRLQSGIPSRFSGSGYGTDFTLTISSLQPEDFATYYCQQHNEYPWTFGGGTKLEIK

- Kd [3]: 2.73 nM
- koff [3]: 0.00391 s⁻¹
- kon [3]: 1.43e+06 M⁻¹ s⁻¹
B8: humanized anti-human TIGIT monoclonal antibody P04664 (antibody, V domains shown)
VH: EVQVVESGGGLVKPGGSLRLSCAASGFTFSTYAMSWVRQAPEQRLEWVAEISSGGSHTFYSDTVTGRFTISRDNAKNTLYLQMNSLRAEDTAVYYCARKTLDYYALDYWGQGTTVTVSS
VL: DVQITQSPSSVSASVGETITINCRASKSISKYLAWYQQKPGKAPKLLIYSGSRLQSGVPSRFSGSGSGTDFTLTISSLQPEDFATYYCQQHNEYPWTFGGGTKLEIK

- EC50 [2]: 2.61 nM
- Kd [3]: 7.77 nM
- koff [3]: 0.0046 s⁻¹
- kon [3]: 592000 M⁻¹ s⁻¹
- IC50 [4]: 0.836 nM
- EC50 [5]: 0.212 nM
B10: humanized anti-human TIGIT monoclonal antibody P03483 (antibody, V domains shown)
VH: EVQLVESGGGLVKPGGSLRLSCAASGFTFSTYAMSWVRQAPGKGLEWVAEISSGGSHTFYADTVTGRFTISRDNAKNTLYLQMNSLRAEDTAVYYCARKTLDYYALDYWGQGTTVTVSS
VL: DVQITQSPSSVSASVGDRVTINCRASKSISKYLAWYQQKPGKAPKLLIYSGSRLQSGVPSRFSGSGSGTDFTLTISSLQPEDFATYYCQQHNEYPWTFGGGTKLEIK

- binding result [6]: no binding
- binding result (mouse TIGIT antigen): no binding
- IC50 [7]: 0.13 nM
- EC50 [5]: 0.0987 nM
B12: anti-human TIGIT mouse monoclonal antibody 7103-02 (antibody, V domains shown)
VH: EVQLQQSGPELVKPGASVKMSCKASGYTITSYVMHWVKQKPGQGLEWIGYINPYNDGTKYNEKFKGKATLTSDKSSSTAYMELSSLTSEDSAVYYCARWNPYYYAMDYWGQGTSVTVSS
VL: EVVLTQSPAITAASLGQKVTITCSANSSARYVHWYQQKSGTSPKPWIYEISKLASGVPARFSGSGSGTSYSLTISSMGAEDAAIYYCQQWNYPLITFGAGTKLEIK
notes: also called 37C6-1-1

The remaining lines, values behind:

B2: humanized anti-human TIGIT monoclonal antibody P03489 (antibody, V domains shown)
VH: QVQLVQSGAEVKKPGASVKVSCKASGYTFISYNIYWVRQAPGQGLEWMGGVNPSNGNTNFNENFQGRVTMTVDTSISTAYMELSRLRSDDTAVYYCTRGNYYGYEFAYWGQGTTVTVSS
VL: DIQMTQSPSSMSASVGDRVTITCKASQHVSTAVAWYQQKPGKAPKLLIYSPSYRYTGVPSRFSGSGSGTDFTFTISSVQPEDIATYYCQQHYSTPWTFGGGTKLEIK
- EC50 [2]: 0.761 nM
- Kd [1]: 1.19 nM
- koff [1]: 0.000584 s⁻¹
- kon [1]: 489000 M⁻¹ s⁻¹

B3: humanized anti-human TIGIT monoclonal antibody P03477 (antibody, V domains shown)
VH: EVQVVESGGGLVKPGGSLRLSCAASGFTFSTYAMSWVRQAPGKGLEWVAEISSGGSHTFYSDTVTGRFTISRDNAKNTLYLQMNSLRAEDTAVYYCARKTLDYYALDYWGQGTTVTVSS
VL: DVQITQSPSSVSASVGDRVTINCRASKSISKYLAWYQQKPGKAPKLLIYSGSRLQSGVPSRFSGSGSGTDFTLTISSLQPEDFATYYCQQHNEYPWTFGGGTKLEIK
- EC50 [2]: 1.74 nM
- Kd [3]: 5.95 nM
- koff [3]: 0.00291 s⁻¹
- kon [3]: 490000 M⁻¹ s⁻¹
- IC50 [4]: 0.928 nM
- EC50 [5]: 0.194 nM

B5: humanized anti-human TIGIT monoclonal antibody P03480 (antibody, V domains shown)
VH: EVQVVESGGGLVKPGGSLRLSCAASGFTFSTYAMSWVRQAPGKGLEWVAEISSGGSHTFYADTVKGRFTISRDNAKNTLYLQMNSLRAEDTAVYYCARKTLDYYALDYWGQGTTVTVSS
VL: DVQITQSPSSVSASVGDRVTINCRASKSISKYLAWYQQKPGKAPKLLIYSGSRLQSGVPSRFSGSGSGTDFTLTISSLQPEDFATYYCQQHNEYPWTFGGGTKLEIK
- EC50 [2]: 2.19 nM
- Kd [3]: 6.67 nM
- koff [3]: 0.00404 s⁻¹
- kon [3]: 605000 M⁻¹ s⁻¹
- IC50 [4]: 1.24 nM
- EC50 [5]: 0.252 nM

B6: humanized anti-human TIGIT monoclonal antibody P03481 (antibody, V domains shown)
VH: EVQVVESGGGLVKPGGSLRLSCAASGFTFSTYAMSWVRQAPGKGLEWVAEISSGGSHTFYADTVKGRFTISRDNAKNTLYLQMNSLRAEDTAVYYCARKTLDYYALDYWGQGTTVTVSS
VL: DIQMTQSPSSVSASVGDRVTITCRASKSISKYLAWYQQKPGKAPKLLIYSGSRLQSGVPSRFSGSGSGTDFTLTISSLQPEDFATYYCQQHNEYPWTFGGGTKLEIK
- EC50 [2]: 2.82 nM
- Kd [3]: 10 nM
- koff [3]: 0.00666 s⁻¹
- kon [3]: 665000 M⁻¹ s⁻¹
- IC50 [4]: 0.62 nM
- EC50 [5]: 0.122 nM

B9: humanized anti-human TIGIT monoclonal antibody P03482 (antibody, V domains shown)
VH: EVQLVESGGGLVKPGGSLRLSCAASGFTFSTYAMSWVRQAPGKGLEWVAEISSGGSHTFYADTVTGRFTISRDNAKNTLYLQMNSLRAEDTAVYYCARKTLDYYALDYWGQGTTVTVSS
VL: DVQITQSPSYLSASVGDRVTINCRASKSISKYLAWYQQKPGKAPKLLIYSGSRLQSGIPSRFSGSGYGTDFTLTISSLQPEDFATYYCQQHNEYPWTFGGGTKLEIK
- EC50 [2]: 2.38 nM
- Kd [3]: 6.15 nM
- koff [3]: 0.00406 s⁻¹
- kon [3]: 661000 M⁻¹ s⁻¹
- IC50 [4]: 0.791 nM
- EC50 [5]: 0.182 nM

B11: humanized anti-human TIGIT monoclonal antibody P03484 (antibody, V domains shown)
VH: EVQLVESGGGLVKPGGSLRLSCAASGFTFSTYAMSWVRQAPGKGLEWVAEISSGGSHTFYADTVTGRFTISRDNAKNTLYLQMNSLRAEDTAVYYCARKTLDYYALDYWGQGTTVTVSS
VL: DIQMTQSPSSVSASVGDRVTITCRASKSISKYLAWYQQKPGKAPKLLIYSGSRLQSGVPSRFSGSGSGTDFTLTISSLQPEDFATYYCQQHNEYPWTFGGGTKLEIK
- Kd [3]: 9.15 nM
- koff [3]: 0.00639 s⁻¹
- kon [3]: 699000 M⁻¹ s⁻¹
- IC50 [4]: 1.29 nM
- EC50 [5]: 0.187 nM

B13: anti-human TIGIT mouse monoclonal antibody 7103-05 (antibody, V domains shown)
VH: EVQLQQSGPALVKPGASVKISCKTSEYTFTEYTMYWVKQSHGKSLEWIGGINPNNGGTRYNQKFKGKATLTVDKSSSTAYMELRSLTSEDSAVYYCARGGHYDYGFAYWGQGTLVTVSA
VL: DIVMTQSHKFMSTSVGDRVSITCKASQDVKTAVAWYQQKPGQSPKVLIYSPSYRYTGVPDRFTGSGSGTDFTFTISSVQAEDLAVYYCQQHYSTPWTFGGGTKLKSK
notes: also called 41D7-2-1
- binding result [6]: no binding
- binding result (mouse TIGIT antigen): no binding
- IC50 [7]: 0.169 nM
- EC50 [5]: 0.0571 nM
